Results published in article PMC2837404, “The Human Polyoma JC Virus Agnoprotein Acts as a Viroporin” (PLoS Pathogens, 2010).
Where “and” joins values, the source holds several entries; their conditions need not be identical. Identical values can stand only once.

Target: the molecule itself
Experiment: cross-linking; SVG-A cells infected with JCV for 1 week, reacted as whole cells with 0.5, 1, 2 or 5 mM DSS (or DMSO) for 2 h at 4°C in DPBS (+), quenched with 50 mM Tris pH 7.5, lysed in 1% Triton X-100; SDS-PAGE and immunoblot with anti-agnoprotein antibody

B1: JCV agnoprotein expressed in JCV-infected SVG-A cells (natural protein)
chain: MVLRQLSRKASVKVSKTWSGTKKRAQRILIFLLEFLLDFCTGEDSVDGKKRQRHSGLTEQTYSALPEPKAT
notes: JC virus (JCV) agnoprotein made from the viral genome in infected cells; monomer about 8 kDa; The virus was prepared from JCI cells or JC virus-infected SVG-A cells; source: SVG-A cells infected with JCV for 1 week
B1 was tested. Which “stoichiometry N” value did it give?
The value was 2 and 3 and 4 and 5.
